From paper PMC11203824

T1: EGFP-Arc (EGFP tag at the N-terminus), expressed in U2OS cells (mouse), Q9WV31
T1 chain: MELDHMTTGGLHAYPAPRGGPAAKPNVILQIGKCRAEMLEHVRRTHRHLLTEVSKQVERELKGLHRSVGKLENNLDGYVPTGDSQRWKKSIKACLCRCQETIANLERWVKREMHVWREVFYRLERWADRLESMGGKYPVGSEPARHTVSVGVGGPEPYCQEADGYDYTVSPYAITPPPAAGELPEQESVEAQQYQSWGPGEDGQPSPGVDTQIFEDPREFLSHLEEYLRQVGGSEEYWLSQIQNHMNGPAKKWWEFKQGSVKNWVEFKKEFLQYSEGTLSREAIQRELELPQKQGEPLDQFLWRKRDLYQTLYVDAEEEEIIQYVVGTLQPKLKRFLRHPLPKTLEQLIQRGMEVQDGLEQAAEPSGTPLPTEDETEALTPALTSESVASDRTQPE

T2: Arc-EGFP (EGFP tag at the C-terminus), expressed in U2OS cells (mouse), Q9WV31
T2 chain: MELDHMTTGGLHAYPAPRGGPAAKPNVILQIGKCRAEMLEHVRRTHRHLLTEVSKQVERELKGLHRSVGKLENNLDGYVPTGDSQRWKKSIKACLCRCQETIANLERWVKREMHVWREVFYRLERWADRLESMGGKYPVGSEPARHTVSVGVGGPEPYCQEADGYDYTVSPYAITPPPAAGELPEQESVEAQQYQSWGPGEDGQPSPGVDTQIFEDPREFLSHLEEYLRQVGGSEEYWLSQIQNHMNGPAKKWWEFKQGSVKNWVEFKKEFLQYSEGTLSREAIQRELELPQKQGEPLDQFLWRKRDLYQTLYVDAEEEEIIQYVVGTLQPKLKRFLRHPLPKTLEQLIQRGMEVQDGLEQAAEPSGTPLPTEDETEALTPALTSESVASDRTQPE


Experiments:
[1] = molecular target: T1, EGFP-Arc (EGFP tag at the N-terminus), …; experiment: fluorescence fluctuation spectroscopy (brightness analysis); single-point FFS in the cytoplasm of living U2OS cells, ~200 nM to ~5 µM EGFP-tagged Arc; normalized brightness b against EGFP alone gives the average stoichiometry; details: remark: other sources report otherwise
[2] = molecular target: T2, Arc-EGFP (EGFP tag at the C-terminus), …; experiment: as above; details: remark: other sources report otherwise

stoichiometry N (Arc molecules per particle) [1]	stoichiometry N (Arc molecules per particle) [2]	Binder
1 to 3		EGFP-Arc (EGFP tag at the N-terminus), expressed in U2OS cells, Q9WV31 1-396 (natural protein) MELDHMTTGGLHAYPAPRGGPAAKPNVILQIGKCRAEMLEHVRRTHRHLLTEVSKQVERELKGLHRSVGKLENNLDGYVPTGDSQRWKKSIKACLCRCQETIANLERWVKREMHVWREVFYRLERWADRLESMGGKYPVGSEPARHTVSVGVGGPEPYCQEADGYDYTVSPYAITPPPAAGELPEQESVEAQQYQSWGPGEDGQPSPGVDTQIFEDPREFLSHLEEYLRQVGGSEEYWLSQIQNHMNGPAKKWWEFKQGSVKNWVEFKKEFLQYSEGTLSREAIQRELELPQKQGEPLDQFLWRKRDLYQTLYVDAEEEEIIQYVVGTLQPKLKRFLRHPLPKTLEQLIQRGMEVQDGLEQAAEPSGTPLPTEDETEALTPALTSESVASDRTQPE
	1 to 3	Arc-EGFP (EGFP tag at the C-terminus), expressed in U2OS cells, Q9WV31 1-396 (natural protein) MELDHMTTGGLHAYPAPRGGPAAKPNVILQIGKCRAEMLEHVRRTHRHLLTEVSKQVERELKGLHRSVGKLENNLDGYVPTGDSQRWKKSIKACLCRCQETIANLERWVKREMHVWREVFYRLERWADRLESMGGKYPVGSEPARHTVSVGVGGPEPYCQEADGYDYTVSPYAITPPPAAGELPEQESVEAQQYQSWGPGEDGQPSPGVDTQIFEDPREFLSHLEEYLRQVGGSEEYWLSQIQNHMNGPAKKWWEFKQGSVKNWVEFKKEFLQYSEGTLSREAIQRELELPQKQGEPLDQFLWRKRDLYQTLYVDAEEEEIIQYVVGTLQPKLKRFLRHPLPKTLEQLIQRGMEVQDGLEQAAEPSGTPLPTEDETEALTPALTSESVASDRTQPE
